Results reported in patent US20080058263A1 (published 2008).
Changes are numbered by the printed parent chain.

T1: VEGFR-3-Fc (UniProt P35916 25-328)
T1 construct: domain: first three Ig domains; conditioned supernatant of 293T cells; also called VEGFR-3-Fc fusion protein; not shown: Fc fragment of the pIg vector
T1 sequence (looked up): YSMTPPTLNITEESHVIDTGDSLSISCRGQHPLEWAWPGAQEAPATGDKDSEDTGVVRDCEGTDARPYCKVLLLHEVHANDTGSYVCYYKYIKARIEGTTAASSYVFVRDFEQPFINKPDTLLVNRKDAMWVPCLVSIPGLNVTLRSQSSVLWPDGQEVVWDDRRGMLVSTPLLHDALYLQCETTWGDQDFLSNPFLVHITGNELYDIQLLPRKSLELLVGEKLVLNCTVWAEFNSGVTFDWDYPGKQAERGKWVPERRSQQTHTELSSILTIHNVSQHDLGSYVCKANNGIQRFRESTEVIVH

B1: 14-13 (ligand)
chain: GQNHHEVVKFMDVYQRSYCHPIETLVDIFQEFGVATNTFFKPSCVPLMRCGGCCNDEGLECVPTEESNITMQIMRITVPLSQGPKPVTISFANHTSCRCMSKLD
B2: 14-15 (ligand)
chain: B1 chain with D56S, E60Q
B3: 34-1 (ligand)
chain: GQNHHEVVKSIDNEWRKTQCMPIETLVDIFQEFGVATNTFFKPSCVPLMRCGGCCNDEGLECVPTEESNITMQIMRIKPHQGQHIGEMSFLQHNKCECRPKKD
B4: 34-7 (ligand)
chain: B3 chain with D57S, E61Q, L91A, Q92N, N94T, K95S, E97R, R99M, P100S, K102L
B5: 34-3 (ligand)
chain: B3 chain with D57S, E61Q
B6: 34-5 (ligand)
chain: B3 chain with L91A, Q92N, N94T, K95S, E97R, R99M, P100S, K102L
B7: 23-13 (ligand)
chain: AHYNTEILKSIDNEWRKTQCMPREVCIDVGKEYPDEIEYIFKPPCVSVYRCGGCCNDEGLECVPTEESNITMQIMRITVPLSQGPKPVTISFANHTSCRCMSKLD
B8: 23-15 (ligand)
chain: B7 chain with D57S, E61Q
B9: 13-4 (ligand)
chain: GQNHHEVVKFMDVYQRSYCHPIETLVDIFQEYPDEIEYIFKPPCVSVYRCGGCCNSEGLQCMNTSTSYLSKTLFEIKPHQGQHIGEMSFLQHNKCECRPKKD
B10: 23-1 (ligand)
chain: AHYNTEILKSIDNEWRKTQCMPREVCIDVGKEYPDEIEYIFKPPCVSVYRCGGCCNDEGLECVPTEESNITMQIMRIKPHQGQHIGEMSFLQHNKCECRPKKD
B11: 21-1 (ligand)
chain: B10 chain with P44S, S47P, V48L, Y49M
B12: 23-3 (ligand)
chain: B10 chain with D57S, E61Q
B13: 23-7 (ligand)
chain: B10 chain with D57S, E61Q, L91A, Q92N, N94T, K95S, E97R, R99M, P100S, K102L
B14: 13-14 (ligand)
chain: GQNHHEVVKFMDVYQRSYCHPIETLVDIFQEYPDEIEYIFKPPCVSVYRCGGCCNDEGLECMNTSTSYLSKTLFEITVPLSQGPKPVTISFANHTSCRCMSKLD
B15: 33-5 (ligand)
chain: GQNHHEVVKSIDNEWRKTQCMPIETLVDIFQEYPDEIEYIFKPPCVSVYRCGGCCNDEGLECVPTEESNITMQIMRIKPHQGQHIGEMSFANHTSCRCMSKLD
B16: 33-7 (ligand)
chain: B15 chain with D57S, E61Q
B17: 33-2 (ligand)
chain: GQNHHEVVKSIDNEWRKTQCMPIETLVDIFQEYPDEIEYIFKPPCVSVYRCGGCCNDEGLECMNTSTSYLSKTLFEIKPHQGQHIGEMSFLQHNKCECRPKKD
B18: 33-4 (ligand)
chain: B17 chain with D57S, E61Q
B19: 33-14 (ligand)
chain: GQNHHEVVKSIDNEWRKTQCMPIETLVDIFQEYPDEIEYIFKPPCVSVYRCGGCCNDEGLECMNTSTSYLSKTLFEITVPLSQGPKPVTISFANHTSCRCMSKLD
B20: 33-16 (ligand)
chain: B19 chain with D57S, E61Q
B21: 72-7 (ligand)
chain: GQNHHEVVKSIDNEWRKTQCMPREVCIDVGKEFGVATNTFFKPPCVSVYRCGGCCNSEGLQCVPTEESNITMQIMRIKPHQGQHIGEMSFANHTSCRCMSKL
B22: 31-4 (ligand)
chain: GQNHHEVVKSIDNEWRKTQCMPIETLVDIFQEYPDEIEYIFKPSCVPLMRCGGCCNDEGLECVPTEESNITMQIMRITVPLSQGPKPVTISFANHTSCRCMSKLD
B23: 33-15 (ligand)
chain: B22 chain with S44P, P47S, L48V, M49Y, D57S, E61Q
B24: 33-13 (ligand)
chain: B22 chain with S44P, P47S, L48V, M49Y
B25: 31-6 (ligand)
chain: GQNHHEVVKSIDNEWRKTQCMPIETLVDIFQEYPDEIEYIFKPSCVPLMRCGGCCNDEGLECMNTSTSYLSKTLFEIKPHQGQHIGEMSFANHTSCRCMSKLD
B26: 33-6 (ligand)
chain: B25 chain with S44P, P47S, L48V, M49Y
B27: 33-8 (ligand)
chain: B25 chain with S44P, P47S, L48V, M49Y, D57S, E61Q

These binders were tested against T2, VEGFR-2-Fc (UniProt P35968 20-322) (assay: receptor-Fc IP).
T2 construct: domain: first 3 Ig domains; conditioned supernatant of 293T cells; also called VEGFR-2-Fc fusion protein; not shown: Fc fragment of the pIg vector
T2 sequence (P35968 20-322): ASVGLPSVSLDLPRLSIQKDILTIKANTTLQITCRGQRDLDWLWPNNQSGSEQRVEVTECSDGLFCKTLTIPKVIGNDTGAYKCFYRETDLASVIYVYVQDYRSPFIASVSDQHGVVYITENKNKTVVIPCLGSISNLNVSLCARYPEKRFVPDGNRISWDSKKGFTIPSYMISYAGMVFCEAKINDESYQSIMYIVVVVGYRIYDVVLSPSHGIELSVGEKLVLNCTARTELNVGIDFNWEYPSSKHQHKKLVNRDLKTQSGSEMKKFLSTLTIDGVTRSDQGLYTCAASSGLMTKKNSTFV
Outline: (§1)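 Binding of ligand from sample supernatant measured by pentahistidine-antibody immunoprecipitation. IP mix: PBS with 1.5% BSA, 0.06% Tween 20, 3 μg/ml heparin and 400 ng/ml fusion protein, added 1:2 to sample supernatant.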

binding result | Binder
no binding | B1
no binding | B2
no binding | B3
no binding | B4
no binding | B5
no binding | B6
no binding | B7
no binding | B8
no binding | B9
no binding | B10
no binding | B11
no binding | B12
no binding | B13
no binding | B14
no binding | B15
no binding | B16
no binding | B17
no binding | B18
no binding | B19
no binding | B20
no binding | B21
no binding | B22
no binding | B23
no binding | B24
no binding | B25
no binding | B26
no binding | B27

The binders below were run against T3, VEGFR-1-Fc (UniProt P17948 27-338) (assay: receptor-Fc IP).
T3 construct: domain: first three Ig domains; expressed in Drosophila S2 cells, purified on Protein A sepharose; also called VEGFR-1-Fc fusion protein; not shown: Fc fragment from the Signal-pIgPlus vector
T3 sequence (P17948 27-338): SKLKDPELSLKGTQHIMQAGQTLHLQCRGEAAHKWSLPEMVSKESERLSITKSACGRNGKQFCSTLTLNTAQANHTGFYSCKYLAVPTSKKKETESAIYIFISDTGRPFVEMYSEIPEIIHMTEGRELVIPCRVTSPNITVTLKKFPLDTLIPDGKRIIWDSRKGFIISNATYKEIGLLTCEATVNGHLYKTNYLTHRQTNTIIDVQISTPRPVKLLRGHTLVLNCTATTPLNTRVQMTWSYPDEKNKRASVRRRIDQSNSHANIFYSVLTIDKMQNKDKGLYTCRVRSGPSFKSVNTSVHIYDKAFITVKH
Outline: as §1

binding result | Binder
no binding | B1
no binding | B2
no binding | B3
no binding | B4
no binding | B5
no binding | B6
no binding | B7
no binding | B8
no binding | B9
no binding | B10
no binding | B11
no binding | B12
no binding | B13
no binding | B14
no binding | B15
no binding | B16
no binding | B17
no binding | B18
no binding | B19
no binding | B20
no binding | B21
no binding | B22
no binding | B23
no binding | B24
no binding | B25
no binding | B26
no binding | B27

The binders below were run against T1, VEGFR-3-Fc (assay: receptor-Fc IP).
Outline: as §1

binding result | Binder
no binding | B1
no binding | B2
no binding | B3
no binding | B4
no binding | B5
no binding | B6
no binding | B7
no binding | B8
no binding | B9
no binding | B10
no binding | B11
no binding | B12
no binding | B13
no binding | B14
no binding | B15
no binding | B16
no binding | B17
no binding | B18
no binding | B19
no binding | B20
no binding | B21
no binding | B22
no binding | B23
no binding | B24
no binding | B25
no binding | B26
no binding | B27
